Reference: US20240092890A1 (JUNTENDO EDUCATIONAL FOUNDATION, published 2024)
Each block holds one binder with its values, some of them ahead of it.

Key:
[1] = biological target: T1, protein having an Fc region and a His-tag added to the N-terminus of SEQ ID NO: 1; assay: BLItz biolayer interferometry, Fc/His-SEQ ID NO: 1 protein on the biosensor
T1 construct: also called mutant CALR protein (antigen of the BLItz measurement); not shown: Fc region and His-tag at the N-terminus
T1 chain: RRMMRTKMRMRRM
Procedure, shortened: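 The Fc/His-tagged protein was loaded at 0.1 mg/mL onto Anti-Penta-HIS or Protein A biosensors. Antibodies were run at 500, 100 and 50 nM by biolayer interferometry, and the dissociation constant was derived from these binding curves.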

[2] = biological target: T2, Ins 5 type mutant CALR protein on UT-7/TPO CALR Ins 5 cells (UniProt P27797 18-417); assay: cell-based or functional assay
T2 sequence (looked up): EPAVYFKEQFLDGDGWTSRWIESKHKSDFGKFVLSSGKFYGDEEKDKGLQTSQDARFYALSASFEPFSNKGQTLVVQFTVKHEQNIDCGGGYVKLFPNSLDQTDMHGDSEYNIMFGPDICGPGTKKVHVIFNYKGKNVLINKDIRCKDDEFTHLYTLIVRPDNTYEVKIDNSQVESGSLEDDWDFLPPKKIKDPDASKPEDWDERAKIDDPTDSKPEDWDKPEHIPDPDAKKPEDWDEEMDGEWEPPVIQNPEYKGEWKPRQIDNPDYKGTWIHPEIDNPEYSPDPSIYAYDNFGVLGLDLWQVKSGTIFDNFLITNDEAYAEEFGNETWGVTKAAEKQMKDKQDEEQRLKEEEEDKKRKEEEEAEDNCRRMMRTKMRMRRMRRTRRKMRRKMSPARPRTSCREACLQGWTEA

B1: Antibody 100 (bispecific antibody, human IgG1, kappa, L234A L235A)
chain 1: not shown
chain 2: DIQMTQSPSFVSASVGDRVTITCLASEDIYSYLAWYQQKPGKAPKLLIFAANRLQDGVPSRFSGGGSGTGFTLTISSLQPEDFATYFCLQGSKFPYTFGQGTKLEINRTVAAPSVFIFPPSDEQLKSGTASVVCLLNNFYPREAKVQWKVDNALQSGNSQESVTEQDSKDSTYSLSSTLTLSKADYEKHKVYACEVTHQGLSSPVTKSFNRGECGGGGSGGGGSQVQLVQSGGGVVQPGRSLRLSCKASGYTFTRYTMHWVRQAPGKGLEWIGYINPSRGYTNYNQKVKDRFTISRDNSKNTAFLQMDSLRPEDTGVYFCARYYDDHYSLDYWGQGTPVTVSSGGGGSGGGGSGGGGSDIQMTQSPSSLSASVGDRVTITCSASSSVSYMNWYQQTPGKAPKRWIYDTSKLASGVPSRFSGSGSGTDYTFTISSLQPEDIATYYCQQWSSNPFTFGQGTKLQITR
Kd [1]: < 0.001 nM
EC50 of cytotoxic activity (pM) [2]: 1080 pM

B3: Antibody 103 (bispecific antibody, human IgG1, kappa, L234A L235A)
chain 1: not shown
chain 2: DIQMTQSPSSLSASVGDRVTITCLASEDIYSYLAWYQQKPGKAPKLLIFAANRLQSGVPSRFSGSGSGTDFTLTISSLQPEDFATYYCLQGSKFPYTFGPGTKVDIKRTVAAPSVFIFPPSDEQLKSGTASVVCLLNNFYPREAKVQWKVDNALQSGNSQESVTEQDSKDSTYSLSSTLTLSKADYEKHKVYACEVTHQGLSSPVTKSFNRGECGGGGSGGGGSQVQLVQSGGGVVQPGRSLRLSCKASGYTFTRYTMHWVRQAPGKGLEWIGYINPSRGYTNYNQKVKDRFTISRDNSKNTAFLQMDSLRPEDTGVYFCARYYDDHYSLDYWGQGTPVTVSSGGGGSGGGGSGGGGSDIQMTQSPSSLSASVGDRVTITCSASSSVSYMNWYQQTPGKAPKRWIYDTSKLASGVPSRFSGSGSGTDYTFTISSLQPEDIATYYCQQWSSNPFTFGQGTKLQITR
Kd [1]: < 0.001 nM
EC50 of cytotoxic activity (pM) [2]: 399 pM

B4: Antibody 104 (bispecific antibody, human IgG1, kappa, L234A L235A)
chain 1: not shown
chain 2: DIQMTQSPSSLSASVGDRVTITCLASEDIYSYLAWYQQKPGKAPKLLIFAANRLQSGVPSRFSGSGSGTDFTLTISSLQPEDFATYYCLQGSKFPYTFGPGTKVDIKRTVAAPSVFIFPPSDEQLKSGTASVVCLLNNFYPREAKVQWKVDNALQSGNSQESVTEQDSKDSTYSLSSTLTLSKADYEKHKVYACEVTHQGLSSPVTKSFNRGECGGGGSGGGGSQVQLVQSGGGVVQPGRSLRLSCKASGYTFTRYTMHWVRQAPGKGLEWIGYINPSRGYTNYNQKVKDRFTISRDNSKNTAFLQMDSLRPEDTGVYFCARYYDDHYSLDYWGQGTPVTVSSGGGGSGGGGSGGGGSDIQMTQSPSSLSASVGDRVTITCSASSSVSYMNWYQQTPGKAPKRWIYDTSKLASGVPSRFSGSGSGTDYTFTISSLQPEDIATYYCQQWSSNPFTFGQGTKLQITR
Kd [1]: < 0.001 nM
EC50 of cytotoxic activity (pM) [2]: 621 pM

B6: Antibody 111 (bispecific antibody)
chain 1: not shown
chain 2: DIQMTQSPSSLSASVGDRVTITCLASEDIYSYLAWYQQKPGKAPKLLIFAANRLQSGVPSRFSGSGSGTDFTLTISSLQPEDFATYYCLQGSKFPYTFGPGTKVDIKRTVAAPSVFIFPPSDEQLKSGTASVVCLLNNFYPREAKVQWKVDNALQSGNSQESVTEQDSKDSTYSLSSTLTLSKADYEKHKVYACEVTHQGLSSPVTKSFNRGEC
chain 3: DKTHTCPPCPAPEAAGGPSVFLFPPKPKDTLMISRTPEVTCVVVDVSHEDPEVKFNWYVDGVEVHNAKTKPREEQYNSTYRVVSVLTVLHQDWLNGKEYKCKVSNKALPAPIEKTISKAKGQPREPQVCTLPPSREEMTKNQVSLSCAVKGFYPSDIAVEWESNGQPENNYKTTPPVLDSDGSFFLVSKLTVDKSRWQQGNVFSCSVMHEALHNHYTQKSLSLSPGK
Kd [1]: 12.8 nM
EC50 of cytotoxic activity (pM) [2]: 6110 pM

B7: Antibody 107 (bispecific antibody)
chain 1: not shown
chain 2: DIQMTQSPSSLSASVGDRVTITCLASEDIYSYLAWYQQKPGKAPKLLIFAANRLQDGVPSRFSGSGSGTDFTLTISSLQPEDFATYYCLQGSKFPYTFGPGTKVDIKRTVAAPSVFIFPPSDEQLKSGTASVVCLLNNFYPREAKVQWKVDNALQSGNSQESVTEQDSKDSTYSLSSTLTLSKADYEKHKVYACEVTHQGLSSPVTKSFNRGEC
chain 3: DKTHTCPPCPAPEAAGGPSVFLFPPKPKDTLMISRTPEVTCVVVDVSHEDPEVKFNWYVDGVEVHNAKTKPREEQYNSTYRVVSVLTVLHQDWLNGKEYKCKVSNKALPAPIEKTISKAKGQPREPQVCTLPPSREEMTKNQVSLSCAVKGFYPSDIAVEWESNGQPENNYKTTPPVLDSDGSFFLVSKLTVDKSRWQQGNVFSCSVMHEALHNHYTQKSLSLSPGK
Kd [1]: 12.1 nM
EC50 of cytotoxic activity (pM) [2]: 3870 pM

Continued, in another order:

Kd [1]: < 0.001 nM
B2: Antibody 102 (bispecific antibody, human IgG1, kappa, L234A L235A)
chain 1: not shown
chain 2: DIQMTQSPSFVSASVGDRVTITCLASEDIYSYLAWYQQKPGKAPKLLIFAANRLQSGVPSRFSGGGSGTGFTLTISSLQPEDFATYFCLQGSKFPYTFGQGTKLEINRTVAAPSVFIFPPSDEQLKSGTASVVCLLNNFYPREAKVQWKVDNALQSGNSQESVTEQDSKDSTYSLSSTLTLSKADYEKHKVYACEVTHQGLSSPVTKSFNRGECGGGGSGGGGSQVQLVQSGGGVVQPGRSLRLSCKASGYTFTRYTMHWVRQAPGKGLEWIGYINPSRGYTNYNQKVKDRFTISRDNSKNTAFLQMDSLRPEDTGVYFCARYYDDHYSLDYWGQGTPVTVSSGGGGSGGGGSGGGGSDIQMTQSPSSLSASVGDRVTITCSASSSVSYMNWYQQTPGKAPKRWIYDTSKLASGVPSRFSGSGSGTDYTFTISSLQPEDIATYYCQQWSSNPFTFGQGTKLQITR
EC50 of cytotoxic activity (pM) [2]: 850 pM

Kd [1]: 4.99 nM
B5: Antibody 106 (bispecific antibody)
chain 1: QVQLVQSGAEVKKPGSSVKVSCKASGYTFTRNFIHWIRQAPGQGLEWIGWIFPGDADTEYNQKFSGRATITADKSTSTAYMELSSLRSEDTAVYYCARGNYNYEYFDYWGQGTMVTVSSASTKGPSVFPLAPSSKSTSGGTAALGCLVKDYFPEPVTVSWNSGALTSGVHTFPAVLQSSGLYSLSSVVTVPSSSLGTQTYICNVNHKPSNTKVDKRVEPKSCGGGGSQVQLVQSGGGVVQPGRSLRLSCKASGYTFTRYTMHWVRQAPGKGLEWIGYINPSRGYTNYNQKVKDRFTISRDNSKNTAFLQMDSLRPEDTGVYFCARYYDDHYSLDYWGQGTPVTVSSGGGGSGGGGSGGGGSDIQMTQSPSSLSASVGDRVTITCSASSSVSYMNWYQQTPGKAPKRWIYDTSKLASGVPSRFSGSGSGTDYTFTISSLQPEDIATYYCQQWSSNPFTFGQGTKLQITRHHHHHH
chain 2: DIQMTQSPSSLSASVGDRVTITCLASEDIYSYLAWYQQKPGKAPKLLIFAANRLQDGVPSRFSGSGSGTDFTLTISSLQPEDFATYYCLQGSKFPYTFGPGTKVDIKRTVAAPSVFIFPPSDEQLKSGTASVVCLLNNFYPREAKVQWKVDNALQSGNSQESVTEQDSKDSTYSLSSTLTLSKADYEKHKVYACEVTHQGLSSPVTKSFNRGEC
EC50 of cytotoxic activity (pM) [2]: 2560 pM

Kd [1]: 5.33 nM
B8: Antibody 110 (bispecific antibody)
chain 1: not shown
chain 2: DIQMTQSPSSLSASVGDRVTITCLASEDIYSYLAWYQQKPGKAPKLLIFAANRLQSGVPSRFSGSGSGTDFTLTISSLQPEDFATYYCLQGSKFPYTFGPGTKVDIKRTVAAPSVFIFPPSDEQLKSGTASVVCLLNNFYPREAKVQWKVDNALQSGNSQESVTEQDSKDSTYSLSSTLTLSKADYEKHKVYACEVTHQGLSSPVTKSFNRGEC
chain 3: DKTHTCPPCPAPEAAGGPSVFLFPPKPKDTLMISRTPEVTCVVVDVSHEDPEVKFNWYVDGVEVHNAKTKPREEQYNSTYRVVSVLTVLHQDWLNGKEYKCKVSNKALPAPIEKTISKAKGQPREPQVCTLPPSREEMTKNQVSLSCAVKGFYPSDIAVEWESNGQPENNYKTTPPVLDSDGSFFLVSKLTVDKSRWQQGNVFSCSVMHEALHNHYTQKSLSLSPGK
EC50 of cytotoxic activity (pM) [2]: 2540 pM
